The target in assay [1] is murine neonatal Fc receptor (FcRn), extracellular domain (murine | not stated) (UniProt Q61559). Nature of the assay: SPR; FcRn extracellular domain immobilised on a CM5 chip (600 RU); Fc fusions injected; McIlvaine's phosphate-citrate buffer pH 6.0 with 0.05% Tween 20, 25 °C, 50 μL/min; Biacore 3000; bivalent analyte model (KD1). (In general: Surface plasmon resonance follows binding to a sensor surface in real time, without labels.)

Assay [2] has as its target mouse PRYSPRY-domain of TRIM21 (tripartite-motif containing protein 21) (mouse). Nature of the assay: SPR; TRIM21 PRYSPRY-domain immobilised on a CM5 chip (200 RU); Fc fusions injected; HBS-EP pH 7.4 (0.01 M HEPES, 0.15 M NaCl, 3 mM EDTA, 0.05% Tween 20), 25 °C, 50 μL/min; Biacore 3000; bivalent analyte model (KD1).

UniProt Q61559, sequence (Q61559 whole entry, looked up, the tested form may be a part): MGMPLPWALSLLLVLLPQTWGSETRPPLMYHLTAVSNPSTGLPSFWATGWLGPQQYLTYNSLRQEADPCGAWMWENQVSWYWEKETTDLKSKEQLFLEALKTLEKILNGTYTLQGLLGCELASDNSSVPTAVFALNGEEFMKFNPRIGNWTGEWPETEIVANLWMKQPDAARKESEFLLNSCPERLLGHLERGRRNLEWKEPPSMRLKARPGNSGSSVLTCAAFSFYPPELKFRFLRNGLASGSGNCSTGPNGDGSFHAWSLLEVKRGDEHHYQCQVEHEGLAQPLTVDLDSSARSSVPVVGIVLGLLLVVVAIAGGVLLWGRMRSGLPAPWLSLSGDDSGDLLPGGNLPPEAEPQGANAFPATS

With “Fc-ARP1 fusion protein (mouse IgG1 Fc fused to the anti-rotavirus VHH ARP1) (Fc fusion)”, the figures for the Kd in assay [1] and in assay [2] were 760 nM and 28 nM, respectively.

The values above are taken from publication PMC4954977.
